Consider 5 substances from article PMC12301659.

In assay [1] the target is separase [also known as separin (ESPL1)], endogenous [human (endogenous in HCT116)]. Nature of the assay: proximity ligation assay (PLA). As to conditions: HCT116 cells stably expressing GFP–Centrin2; antibodies against HA and separase; parent: 44; read off a plot.
Assay [2] concerns the target 14-3-3ε (endogenous) [human (endogenous in HCT116)]. Nature of the assay: proximity ligation assay (PLA). Conditions: HCT116 cells stably expressing GFP–Centrin2; antibodies to the Myc epitope tag and 14-3-3ε; parent: 52; read off a plot.

Regarding “HA-tagged 14-3-3ε WT mutant D127A [not stated] / separase [also known as separin (ESPL1)], endogenous [human (endogenous in HCT116)] chain 1 D127A”, the response (puncta per cell) in assay [1] came to 63.

With “HA-tagged 14-3-3ε WT mutant D127A; E134A [not stated] / separase [also known as separin (ESPL1)], endogenous [human (endogenous in HCT116)] chain 1 D127A, chain 1 E134A”, in assay [1], the response (puncta per cell) was found to be 19.

As for “HA-tagged 14-3-3ε WT mutant E134A [not stated] / separase [also known as separin (ESPL1)], endogenous [human (endogenous in HCT116)] chain 1 E134A”, in assay [1], the response (puncta per cell) amounted to 8.

“Myc-tagged separase (FL) mutant S1501A [human] / 14-3-3ε (endogenous) [human (endogenous in HCT116)] chain 1 S1501A”: the response (puncta per cell) in assay [2] was determined as 0.5.

Turning to “Myc-tagged separase (FL) mutant T1363A [human] / 14-3-3ε (endogenous) [human (endogenous in HCT116)] chain 1 T1363A”, the response (puncta per cell) in assay [2] came to 45.
